Reference: patent US20050118674A1, “Engineering of Controlled Deamidation Rates in Peptides, Proteins, and Similar Structures” (priority 2003, published 2005)
Where no end group is shown, it is not given here.

Experiment: First-order nonenzymatic deamidation of pentapeptides in Tris buffer
Type: physicochemical
Details: 0.15 M Tris HCl; for First-Order Deamidation Halftimes of GlyXxxGlnYyyGly: pH 7.4, 37.0 ° C., Gln pentapeptides, 52 values measured, rest derived from surface fitting; for First-Order Deamidation Halftimes of GlyXxxAsnYyyGly: pH 7.4, 37.0° C., Asn pentapeptides
In short: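 First-order deamidation rates determined for XxxAsnYyy and XxxGlnYyy pentapeptides in 0.15 M Tris buffer, pH 7.4, 37° C. Not all values were measured directly: several Asn rates were estimated and most Gln rates came from surface fitting.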

Substance | First-Order Deamidation Halftimes of GlyXxxGlnYyyGly [days] | First-Order Deamidation Halftimes of GlyXxxAsnYyyGly [days]
GlyLeuGlnLysGly (GLQKG; printed: GlyLeuGlnLysGly) | 6100 | –
GlyTyrAsnCysGly (GYNCG; printed: GlyTyrAsnCysGly) | – | 48.6
GlyProAsnGlyGly (GPNGG; printed: GlyProAsnGlyGly) | – | 1.18
GlyAspAsnValGly (GDNVG; printed: GlyAspAsnValGly) | – | 241
GlyPheAsnArgGly (GFNRG; printed: GlyPheAsnArgGly) | – | 61.2
GlyTyrGlnAlaGly (GYQAG; printed: GlyTyrGlnAlaGly) | 7300 | –
GlyArgAsnLeuGly (GRNLG; printed: GlyArgAsnLeuGly) | – | 128
GlyAlaAsnSerGly (GANSG; printed: GlyAlaAsnSerGly) | – | 14.9
GlySerAsnHisGly (GSNHG; printed: GlySerAsnHisGly) | – | 9.0
GlyCysGlnTyrGly (GCQYG; printed: GlyCysGlnTyrGly) | 7900 | –
GlyPheAsnThrGly (GFNTG; printed: GlyPheAsnThrGly) | – | 39.0
GlyLysGlnAlaGly (GKQAG; printed: GlyLysGlnAlaGly) | 4300 | –
GlySerGlnLeuGly (GSQLG; printed: GlySerGlnLeuGly) | 6100 | –
GlyHisGlnArgGly (GHQRG; printed: GlyHisGlnArgGly) | 4500 | –
GlySerGlnValGly (GSQVG; printed: GlySerGlnValGly) | 6800 | –
GlyThrAsnLysGly (GTNKG; printed: GlyThrAsnLysGly) | – | 57.6
GlyTyrGlnAspGly (GYQDG; printed: GlyTyrGlnAspGly) | 8600 | –
GlyGluGlnAspGly (GEQDG; printed: GlyGluGlnAspGly) | 8300 | –
GlyPheGlnLeuGly (GFQLG; printed: GlyPheGlnLeuGly) | 6400 | –
GlyLeuAsnTrpGly (GLNWG; printed: GlyLeuAsnTrpGly) | – | 74.5
GlyMetAsnSerGly (GMNSG; printed: GlyMetAsnSerGly) | – | 15.2
GlyLeuGlnValGly (GLQVG; printed: GlyLeuGlnValGly) | 6800 | –
GlyProAsnLeuGly (GPNLG; printed: GlyProAsnLeuGly) | – | 181
GlyTrpGlnThrGly (GWQTG; printed: GlyTrpGlnThrGly) | 5600 | –
GlyAlaGlnProGly (GAQPG; printed: GlyAlaGlnProGly) | 9300 | –
GlyMetGlnValGly (GMQVG; printed: GlyMetGlnValGly) | 5000 | –
GlyProAsnTyrGly (GPNYG; printed: GlyProAsnTyrGly) | – | 114

Substance | First-Order Deamidation Halftimes of GlyXxxGlnYyyGly [days] | First-Order Deamidation Halftimes of GlyXxxAsnYyyGly [days]
GlyArgAsnGluGly (GRNEG; printed: GlyArgAsnGluGly) | – | 68.3
GlyArgGlnThrGly (GRQTG; printed: GlyArgGlnThrGly) | 4200 | –
GlyCysGlnPheGly (GCQFG; printed: GlyCysGlnPheGly) | 6500 | –
GlyGluGlnValGly (GEQVG; printed: GlyGluGlnValGly) | 6400 | –
GlyIleGlnProGly (GIQPG; printed: GlyIleGlnProGly) | 10000 | –
GlyTrpGlnGlyGly (GWQGG; printed: GlyTrpGlnGlyGly) | 850 | –
GlyPheAsnAspGly (GFNDG; printed: GlyPheAsnAspGly) | – | 27.4
GlyLeuGlnAlaGly (GLQAG; printed: GlyLeuGlnAlaGly) | 6000 | –
GlyGluGlnProGly (GEQPG; printed: GlyGluGlnProGly) | 10000 | –
GlyAspAsnMetGly (GDNMG; printed: GlyAspAsnMetGly) | – | 57.3
GlyLysGlnPheGly (GKQFG; printed: GlyLysGlnPheGly) | 7000 | –
GlyMetGlnLeuGly (GMQLG; printed: GlyMetGlnLeuGly) | 5000 | –
GlyThrGlnProGly (GTQPG; printed: GlyThrGlnProGly) | 7500 | –
GlyCysAsnHisGly (GCNHG; printed: GlyCysAsnHisGly) | – | 10.8
GlyValGlnSerGly (GVQSG; printed: GlyValGlnSerGly) | 4400 | –
GlyValAsnHisGly (GVNHG; printed: GlyValAsnHisGly) | – | 10.2
GlyIleGlnLeuGly (GIQLG; printed: GlyIleGlnLeuGly) | 6300 | –
GlyValGlnArgGly (GVQRG; printed: GlyValGlnArgGly) | 6100 | –
GlyPheAsnHisGly (GFNHG; printed: GlyPheAsnHisGly) | – | 10.2
GlyHisGlnGluGly (GHQEG; printed: GlyHisGlnGluGly) | 5800 | –
GlyLeuGlnCysGly (GLQCG; printed: GlyLeuGlnCysGly) | 2000 | –
GlyValAsnLysGly (GVNKG; printed: GlyValAsnLysGly) | – | 63.8
GlyHisGlnGlyGly (GHQGG; printed: GlyHisGlnGlyGly) | 850 | –
GlyProGlnPheGly (GPQFG; printed: GlyProGlnPheGly) | 7300 | –
GlyValGlnLysGly (GVQKG; printed: GlyValGlnLysGly) | 5200 | –
GlyArgGlnPheGly (GRQFG; printed: GlyArgGlnPheGly) | 7100 | –
GlyGlyAsnLysGly (GGNKG; printed: GlyGlyAsnLysGly) | – | 48.2

Substance | First-Order Deamidation Halftimes of GlyXxxGlnYyyGly [days] | First-Order Deamidation Halftimes of GlyXxxAsnYyyGly [days]
GlyValAsnLeuGly (GVNLG; printed: GlyValAsnLeuGly) | – | 154
GlyArgGlnCysGly (GRQCG; printed: GlyArgGlnCysGly) | 1000 | –
GlyAspGlnGluGly (GDQEG; printed: GlyAspGlnGluGly) | 8200 | –
GlyTrpGlnMetGly (GWQMG; printed: GlyTrpGlnMetGly) | 5300 | –
GlyThrGlnTyrGly (GTQYG; printed: GlyThrGlnTyrGly) | 8400 | –
GlyLeuAsnMetGly (GLNMG; printed: GlyLeuAsnMetGly) | – | 62.6
GlySerAsnThrGly (GSNTG; printed: GlySerAsnThrGly) | – | 45.7
GlyGluAsnAmCysGly | – | 32.1
GlyAspAsnAmCysGly | – | 45.8
GlyValAsnIleGly (GVNIG; printed: GlyValAsnIleGly) | – | 366
GlyAspGlnThrGly (GDQTG; printed: GlyAspGlnThrGly) | 5400 | –
GlySerAsnValGly (GSNVG; printed: GlySerAsnValGly) | – | 233
GlyHisAsnValGly (GHNVG; printed: GlyHisAsnValGly) | – | 247
GlyValAsnTrpGly (GVNWG; printed: GlyValAsnTrpGly) | – | 88.9
GlyArgGlnLeuGly (GRQLG; printed: GlyArgGlnLeuGly) | 5400 | –
GlyProGlnAlaGly (GPQAG; printed: GlyProGlnAlaGly) | 4700 | –
GlyAlaAsnCysGly (GANCG; printed: GlyAlaAsnCysGly) | – | 63.7
GlyTrpGlnLysGly (GWQKG; printed: GlyTrpGlnLysGly) | 7600 | –
GlyIleGlnTrpGly (GIQWG; printed: GlyIleGlnTrpGly) | 16000 | –
GlyProAsnPheGly (GPNFG; printed: GlyProAsnPheGly) | – | 100
GlySerGlnSerGly (GSQSG; printed: GlySerGlnSerGly) | 6000 | –
GlyThrGlnThrGly (GTQTG; printed: GlyThrGlnThrGly) | 4000 | –
GlyGluGlnLeuGly (GEQLG; printed: GlyGluGlnLeuGly) | 4300 | –
GlyAmCysAsnValGly (CNVG; not fully specified (N-terminus); printed as GlyAmCysAsnValGly; also: glycinamide shown before Cys, linkage not given here) | – | 215
GlySerAsnGluGly (GSNEG; printed: GlySerAsnGluGly) | – | 59.7
